B1: Acetylcholine receptor subunit gamma (Homo sapiens), P07510 (parent)
chain: MHGGQGPLLLLLLLAVCLGAQGRNQEERLLADLMQNYDPNLRPAERDSDVVNVSLKLTLTNLISLNEREEALTTNVWIEMQWCDYRLRWDPRDYEGLWVLRVPSTMVWRPDIVLENNVDGVFEVALYCNVLVSPDGCIYWLPPAIFRSACSISVTYFPFDWQNCSLIFQSQTYSTNEIDLQLSQEDGQTIEWIFIDPEAFTENGEWAIQHRPAKMLLDPAAPAQEAGHQKVVFYLLIQRKPLFYVINIIAPCVLISSVAILIHFLPAKAGGQKCTVAINVLLAQTVFLFLVAKKVPETSQAVPLISKYLTFLLVVTILIVVNAVVVLNVSLRSPHTHSMARGVRKVFLRLLPQLLRMHVRPLAPAAVQDTQSRLQNGSSGWSITTGEEVALCLPRSELLFQQWQRQGLVAAALEKLEKGPELGLSQFCGSLKQAAPAIQACVEACNLIACARHQQSHFDNGNEEWFLVGRVLDRVCFLAMLSLFICGTAGIFLMAHYNRVPALPFPGDPRPYLPSPD
B2: E3 ubiquitin-protein ligase TRIM17 (Homo sapiens), Q9Y577 (parent)
chain: MEAVELARKLQEEATCSICLDYFTDPVMTTCGHNFCRACIQLSWEKARGKKGRRKRKGSFPCPECREMSPQRNLLPNRLLTKVAEMAQQHPGLQKQDLCQEHHEPLKLFCQKDQSPICVVCRESREHRLHRVLPAEEAVQGYKLKLEEDMEYLREQITRTGNLQAREEQSLAEWQGKVKERRERIVLEFEKMNLYLVEEEQRLLQALETEEEETASRLRESVACLDRQGHSLELLLLQLEERSTQGPLQMLQDMKEPLSRKNNVSVQCPEVAPPTRPRTVCRVPGQIEVLRGFLEDVVPDATSAYPYLLLYESRQRRYLGSSPEGSGFCSKDRFVAYPCAVGQTAFSSGRHYWEVGMNITGDALWALGVCRDNVSRKDRVPKCPENGFWVVQLSKGTKYLSTFSALTPVMLMEPPSHMGIFLDFEAGEVSFYSVSDGSHLHTYSQATFPGPLQPFFCLGAPKSGQMVISTVTMWVKG
partner: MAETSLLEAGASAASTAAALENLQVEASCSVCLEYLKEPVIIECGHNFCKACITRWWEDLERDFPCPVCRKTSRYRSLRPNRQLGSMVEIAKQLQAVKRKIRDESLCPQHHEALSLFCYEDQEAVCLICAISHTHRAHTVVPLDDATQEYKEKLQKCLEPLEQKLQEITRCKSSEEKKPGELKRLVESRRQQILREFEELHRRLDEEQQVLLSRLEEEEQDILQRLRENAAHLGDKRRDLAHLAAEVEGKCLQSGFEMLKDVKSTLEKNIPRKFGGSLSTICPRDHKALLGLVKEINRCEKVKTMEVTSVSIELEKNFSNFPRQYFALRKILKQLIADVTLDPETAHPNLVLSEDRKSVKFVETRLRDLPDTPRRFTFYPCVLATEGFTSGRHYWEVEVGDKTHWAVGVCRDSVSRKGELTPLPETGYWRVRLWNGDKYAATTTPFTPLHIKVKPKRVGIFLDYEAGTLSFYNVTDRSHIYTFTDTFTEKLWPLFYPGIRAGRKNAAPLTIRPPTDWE
B3: E3 ubiquitin-protein ligase LNX (Homo sapiens), Q8TBB1 (parent)
chain: MNQPESANDPEPLCAVCGQAHSLEENHFYSYPEEVDDDLICHICLQALLDPLDTPCGHTYCTLCLTNFLVEKDFCPMDRKPLVLQHCKKSSILVNKLLNKLLVTCPFREHCTQVLQRCDLEHHFQTSCKGASHYGLTKDRKRRSQDGCPDGCASLTATAPSPEVSAAATISLMTDEPGLDNPAYVSSAEDGQPAISPVDSGRSNRTRARPFERSTIRSRSFKKINRALSVLRRTKSGSAVANHADQGRENSENTTAPEVFPRLYHLIPDGEITSIKINRVDPSESLSIRLVGGSETPLVHIIIQHIYRDGVIARDGRLLPGDIILKVNGMDISNVPHNYAVRLLRQPCQVLWLTVMREQKFRSRNNGQAPDAYRPRDDSFHVILNKSSPEEQLGIKLVRKVDEPGVFIFNVLDGGVAYRHGQLEENDRVLAINGHDLRYGSPESAAHLIQASERRVHLVVSRQVRQRSPDIFQEAGWNSNGSWSPGPGERSNTPKPLHPTITCHEKVVNIQKDPGESLGMTVAGGASHREWDLPIYVISVEPGGVISRDGRIKTGDILLNVDGVELTEVSRSEAVALLKRTSSSIVLKALEVKEYEPQEDCSSPAALDSNHNMAPPSDWSPSWVMWLELPRCLYNCKDIVLRRNTAGSLGFCIVGGYEEYNGNKPFFIKSIVEGTPAYNDGRIRCGDILLAVNGRSTSGMIHACLARLLKELKGRITLTIVSWPGTFL
partner: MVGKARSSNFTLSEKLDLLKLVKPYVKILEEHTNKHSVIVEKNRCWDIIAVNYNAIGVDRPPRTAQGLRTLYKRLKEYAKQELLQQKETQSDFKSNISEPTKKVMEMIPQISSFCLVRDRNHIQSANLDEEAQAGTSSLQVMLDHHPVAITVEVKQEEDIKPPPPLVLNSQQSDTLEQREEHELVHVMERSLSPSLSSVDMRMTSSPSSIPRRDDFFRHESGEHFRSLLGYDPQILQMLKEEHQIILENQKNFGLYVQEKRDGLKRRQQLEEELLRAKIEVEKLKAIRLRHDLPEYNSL
B4: Late cornified envelope protein 1B (Homo sapiens), Q5T7P3 (parent)
chain: MSCQQNQQQCQPPPKCIPKCPPKCLTPRCPPKCPPKCPPVSSCCSVSSGGCCGSSSGGSCGSSSGGCCSSGGGGCCLSHHRRRRSHCHRPQSSGCCSQPSGGSSCCGGGSGQHSGGCC
partner: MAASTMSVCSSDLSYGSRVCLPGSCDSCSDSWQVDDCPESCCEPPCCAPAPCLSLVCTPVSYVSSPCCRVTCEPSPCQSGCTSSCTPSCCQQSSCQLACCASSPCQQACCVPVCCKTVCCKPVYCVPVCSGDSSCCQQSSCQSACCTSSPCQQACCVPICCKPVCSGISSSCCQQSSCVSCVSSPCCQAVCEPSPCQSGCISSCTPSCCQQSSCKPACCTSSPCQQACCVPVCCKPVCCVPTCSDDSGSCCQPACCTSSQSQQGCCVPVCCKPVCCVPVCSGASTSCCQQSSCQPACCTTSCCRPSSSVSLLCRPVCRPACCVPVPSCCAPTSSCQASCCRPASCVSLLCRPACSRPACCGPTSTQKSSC
B5: E3 ubiquitin-protein ligase LNX (Homo sapiens), Q8TBB1 (parent)
chain: B3 chain
partner: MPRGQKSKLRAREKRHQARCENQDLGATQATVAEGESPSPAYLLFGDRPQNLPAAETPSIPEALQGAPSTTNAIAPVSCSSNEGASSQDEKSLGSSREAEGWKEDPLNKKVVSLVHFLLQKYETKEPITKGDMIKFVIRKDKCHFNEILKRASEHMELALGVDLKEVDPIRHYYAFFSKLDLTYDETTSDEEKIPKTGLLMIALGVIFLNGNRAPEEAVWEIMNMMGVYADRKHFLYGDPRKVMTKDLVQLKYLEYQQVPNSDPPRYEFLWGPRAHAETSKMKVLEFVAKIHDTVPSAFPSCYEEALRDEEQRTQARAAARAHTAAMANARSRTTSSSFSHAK
B6: Histone-lysine N-methyltransferase SMYD1 (Homo sapiens), Q8NB12 (parent)
chain: MTIGRMENVEVFTAEGKGRGLKATKEFWAADIIFAERAYSAVVFDSLVNFVCHTCFKRQEKLHRCGQCKFAHYCDRTCQKDAWLNHKNECSAIKRYGKVPNENIRLAARIMWRVEREGTGLTEGCLVSVDDLQNHVEHFGEEEQKDLRVDVDTFLQYWPPQSQQFSMQYISHIFGVINCNGFTLSDQRGLQAVGVGIFPNLGLVNHDCWPNCTVIFNNGNHEAVKSMFHTQMRIELRALGKISEGEELTVSYIDFLNVSEERKRQLKKQYYFDCTCEHCQKKLKDDLFLGVKDNPKPSQEVVKEMIQFSKDTLEKIDKARSEGLYHEVVKLCRECLEKQEPVFADTNIYMLRMLSIVSEVLSYLQAFEEASFYARRMVDGYMKLYHPNNAQLGMAVMRAGLTNWHAGNIEVGHGMICKAYAILLVTHGPSHPITKDLEAMRVQTEMELRMFRQNEFMYYKMREAALNNQPMQVMAEPSNEPSPALFHKKQ

Variants of: B1
Settings: with kr108_human KRTAP10-8, P60410
kr108_human KRTAP10-8, P60410, sequence (P60410 whole entry): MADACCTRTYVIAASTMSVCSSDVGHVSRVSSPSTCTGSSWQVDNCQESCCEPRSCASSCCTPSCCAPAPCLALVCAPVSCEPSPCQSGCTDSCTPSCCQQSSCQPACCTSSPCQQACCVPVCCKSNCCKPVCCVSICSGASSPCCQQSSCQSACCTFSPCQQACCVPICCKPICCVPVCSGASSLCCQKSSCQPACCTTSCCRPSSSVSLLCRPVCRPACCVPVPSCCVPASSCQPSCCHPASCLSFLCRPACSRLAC

Variant | effect of a mutation on the interaction
I448T | with no effect

Variants of: B1
Settings: with kr103_human KRTAP10-3, P60369
kr103_human KRTAP10-3, P60369, sequence (P60369 whole entry): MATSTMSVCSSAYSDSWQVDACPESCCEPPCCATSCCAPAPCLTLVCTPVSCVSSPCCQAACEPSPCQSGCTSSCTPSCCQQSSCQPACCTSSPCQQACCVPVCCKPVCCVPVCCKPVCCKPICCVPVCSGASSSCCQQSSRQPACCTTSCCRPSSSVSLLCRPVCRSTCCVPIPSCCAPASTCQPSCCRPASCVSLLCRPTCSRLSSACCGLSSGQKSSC

Variant | effect of a mutation on the interaction
I448T | with no effect

Variants of: B1
Settings: with k1h1_human KRT31, Q15323
k1h1_human KRT31, Q15323, sequence (Q15323 whole entry): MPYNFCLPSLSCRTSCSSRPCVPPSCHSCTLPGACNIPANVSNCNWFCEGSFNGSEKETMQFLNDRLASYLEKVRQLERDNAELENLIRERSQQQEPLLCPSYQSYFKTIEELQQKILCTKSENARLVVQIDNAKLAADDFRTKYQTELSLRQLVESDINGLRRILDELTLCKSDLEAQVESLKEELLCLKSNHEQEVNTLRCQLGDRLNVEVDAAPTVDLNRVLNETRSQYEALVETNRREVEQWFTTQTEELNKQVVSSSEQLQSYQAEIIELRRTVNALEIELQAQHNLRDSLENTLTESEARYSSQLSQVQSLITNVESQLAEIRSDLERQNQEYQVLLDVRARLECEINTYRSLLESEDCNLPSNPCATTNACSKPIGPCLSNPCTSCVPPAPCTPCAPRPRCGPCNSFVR

Variant | effect of a mutation on the interaction
I448T | with no effect

Variants of: B1
Settings: with nt2na_human NOTCH2NLA

Variant | effect of a mutation on the interaction
I448T | with no effect

Variants of: B2
Settings: with tri39_human TRIM39, Q9HCM9

Variant | effect of a mutation on the interaction
R159T | with no effect

Variants of: B3
Settings: with fsbp_human FSBP

Variant | effect of a mutation on the interaction
E295K | disrupting interaction strength

Variants of: B4
Settings: with kr107_human KRTAP10-7, P60409

Variant | effect of a mutation on the interaction
C16Y | disrupting interaction strength

Variants of: B5
Settings: with magbi_human MAGEB18, Q96M61

Variant | effect of a mutation on the interaction
E295K | disrupting interaction strength

Variants of: B6
Settings: with bhe40_human BHLHE40, O14503
bhe40_human BHLHE40, O14503, sequence (O14503 whole entry): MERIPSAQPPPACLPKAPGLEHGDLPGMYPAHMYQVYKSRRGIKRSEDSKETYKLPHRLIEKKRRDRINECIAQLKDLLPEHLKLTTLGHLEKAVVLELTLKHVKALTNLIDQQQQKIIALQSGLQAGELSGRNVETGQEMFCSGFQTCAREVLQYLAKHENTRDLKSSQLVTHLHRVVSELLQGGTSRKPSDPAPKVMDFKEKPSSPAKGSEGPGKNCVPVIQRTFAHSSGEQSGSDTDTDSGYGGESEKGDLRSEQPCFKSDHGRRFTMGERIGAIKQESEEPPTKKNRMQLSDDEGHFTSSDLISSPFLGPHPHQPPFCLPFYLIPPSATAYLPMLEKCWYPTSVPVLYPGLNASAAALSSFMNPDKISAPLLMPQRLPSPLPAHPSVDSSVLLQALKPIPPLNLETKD

Variant | effect of a mutation on the interaction
Q443R | with no effect

From IntAct's records for PubMed 29892012
